From patent publication CN114702578A (BAISI MEDICAL DIAGNOSTICS TECH BEIJING CO LTD, dated 2022)

B1: 克隆号为3C6E1的抗体 (antibody, V domains shown)
VH: EVQLVESGGGLIQPGGSLGLSCAASGFTVSSNYMSWVRQAPGRGLEWVSVIYGGGSTTYADSVKGRFTISRDNSKNTLNLQMNSLRAEDTAVYYCARGGRFLHVFDIWGQGTVVTVSS
VL: QSALTQPASVSGSPGQSITISCTGTSSDIGGYNYVSWYQQHPGKAPKLMIYDVTKRPSGVSNRFSGSKSGNTASLTISGLQAEDEADYHCSSYTSSSTRWVFGGGTKLTVL
B2: 克隆号为1B12G6的抗体 (antibody, V domains shown)
VH: QVQLVQSGAEVKKPGSSVKVSCKASGGTFSSYTISWVRQAPGQGLEWLGRIIPILNIANYAQKFQGRVTITADKSTSTAYMELSSLRSEDTAVYYCARDGRASGLGATHYFDYWGQGTLVTVSS
VL: QSVLTQPPSVSGAPGQRVTISCTGSSSNIGAGYNVHWYQQLPGTAPKLLIYGNSNRPSGVPDRFSGSKSGTSASLAITGLQAEDEADYYCQSYDSSLSGSVFGGGTKLTVL
B3: 克隆号为9A5C5的抗体 (antibody, V domains shown)
VH: EVQLQQSGPELVKPGASVKISCKTSGYTFTEYTMHWVKQSHGKSLEWIGGINPNNGGTTYNQKFKGKATLTVDKSSSTAYMELRSLTSEDSAVYYCARDGYSFFDYWGQGTTLTVSS
VL: DIVLTQSPASLAVSLGQRATISCRASKSVSTSGYSYMHWYQQKPGQPPKLLIYLASNLESGVPARFSGSGSGTDFTLNIHPVEEEDAATYYCQHSRELFTFGSGTKLEIK
B4: 克隆号为3A7C12的抗体 (antibody, V domains shown)
VH: EVQLVESGGGLVKPGGSLRLSCAASGFTFSSYSMNWVRQAPGKGLEWVSSISSGSSYIYFADSVKGRFTISRDNAKNSLFLQMNSLRAEDTATYYCARAPLGYDSSGYFTMYYFDYWGQGTLVTVSS
VL: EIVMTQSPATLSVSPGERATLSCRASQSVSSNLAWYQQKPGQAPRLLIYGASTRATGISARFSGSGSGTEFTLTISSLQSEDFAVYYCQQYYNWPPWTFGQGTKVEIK
notes: also called 3A7C12克隆号抗体

How the values were obtained:
[1] = molecular target: T1, 新型冠状病毒Alpha突变株Spike RBD蛋白 (新型冠状病毒Alpha突变株 (SARS-CoV-2 Alpha …, UniProt P0DTC2 319-537)); assay: indirect ELISA, RBD coated at 2 μg/mL
T1 construct: domain: Spike RBD; also called Alpha SPIKE RBD蛋白

[2] = molecular target: T2, 新型冠状病毒Gamma突变株Spike RBD蛋白 (新型冠状病毒Gamma突变株 (SARS-CoV-2 Gamma …, UniProt P0DTC2 319-537)); assay: indirect ELISA, RBD coated at 2 μg/mL
T2 construct: domain: Spike RBD; also called Gamma SPIKE RBD蛋白

新型冠状病毒Beta突变株Spike RBD蛋白 [3] = molecular target: T3, 新型冠状病毒Beta突变株Spike RBD蛋白 (新型冠状病毒Beta突变株 (SARS-CoV-2 Beta variant), UniProt P0DTC2 319-537); assay: indirect ELISA, RBD coated at 2 μg/mL
T3 construct: domain: Spike RBD; also called Beta SPIKE RBD蛋白

[4] = molecular target: T4, 新型冠状病毒Delta突变株Spike RBD蛋白 (新型冠状病毒Delta突变株 (SARS-CoV-2 Delta …, UniProt P0DTC2 319-537)); assay: indirect ELISA, RBD coated at 2 μg/mL
T4 construct: domain: Spike RBD; also called Delta SPIKE RBD蛋白

[5] = molecular target: 新型冠状病毒Omicron突变株Spike RBD蛋白 (新型冠状病毒Omicron突变株 (SARS-CoV-2 Omicron …, UniProt P0DTC2 319-537))
[6] = molecular target: T1, 新型冠状病毒Alpha突变株Spike RBD蛋白; assay: ELISA binding experiment (Fig. 3)
[7] = molecular target: T2, 新型冠状病毒Gamma突变株Spike RBD蛋白; assay: ELISA binding experiment (Fig. 3)
新型冠状病毒Beta突变株Spike RBD蛋白 [8] = molecular target: T3, 新型冠状病毒Beta突变株Spike RBD蛋白; assay: ELISA binding experiment (Fig. 3)
[9] = molecular target: T4, 新型冠状病毒Delta突变株Spike RBD蛋白; assay: ELISA binding experiment (Fig. 3)

| Binder | binding result [1] | binding result [2] | binding result (新型冠状病毒Beta突变株Spike RBD蛋白 [3]) | binding result [4] | Kd [5] [nM] | binding result [6] | binding result [7] | binding result (新型冠状病毒Beta突变株Spike RBD蛋白 [8]) | binding result [9] |
| --- | --- | --- | --- | --- | --- | --- | --- | --- | --- |
| B1 | no binding (tested: 1 μg/mL) | no binding (tested: 1 μg/mL) | no binding (tested: 1 μg/mL) | no binding (tested: 1 μg/mL) | – | – | – | – | – |
| B2 | no binding (tested: 1 μg/mL) | no binding (tested: 1 μg/mL) | no binding (tested: 1 μg/mL) | no binding (tested: 1 μg/mL) | – | – | – | – | – |
| B3 | no binding (tested: 1 μg/mL) | no binding (tested: 1 μg/mL) | no binding (tested: 1 μg/mL) | no binding (tested: 1 μg/mL) | – | – | – | – | – |
| B4 | – | – | – | – | 9.07 | no binding | no binding | no binding | no binding |
